Source: patent publication US12162911B2, “Pulmonary administration of pyocins for treating bacterial respiratory infections” (priority 2014, dated 2024)

Assays:
P. aeruginosa P8 = experiment: Mouse model of acute lung infection, P. aeruginosa P8; assay type: in vivo, Pseudomonas aeruginosa
Description: Study design. […] For all experiments 6 week-old, female, murine pathogen free C57/BL6 mice weighing 15-21 g were used (Charles Rivers Laboratories, UK). All mice received food and water ad libitum and were housed in groups during the experiments. Power calculations were used to predetermine sample size (n=6, for all treatment experiments). Mice were culled when required as determined by a scoring system or culled at the pre-determined 24 h time point. All mice, including outliers were included in the statistical analysis. Experiments were either carried out once only or repeated once (defined for each experiment).
(§1) Model of acute lung infection. Female C57/BL6 mice were inoculated intranasally with 25 μl of bacterial culture containing approximately 10^7 CFU of the selected P. aeruginosa strain^36. Antibiotic treatments were administered at either 6 h pre-infection or 1 h post-infection and were administered only once. Pyocins or tobramycin dissolved in PBS were administered via intranasal administration as described above. Two different end-points were used in these experiments. In order to determine a reduction in the bacterial load of the lungs compared to the untreated controls, all mice in the experiment were culled by carbon dioxide asphyxiation at the same time; 4-6 h post infection. To determine if mice could survive infection after pyocin or tobramycin treatment, mice were monitored closely, culled by carbon dioxide asphyxiation when required as determined by a scoring system or culled at the pre-determined 24 h time point. Uninfected mice, treated with pyocins, were used as controls in the first series of experiments in order to ensure no adverse effects from pyocin treatment. These controls were stopped in later experiments in order to reduce the number of animals used, once it was clear that the pyocins were not harmful. For CFU determination, lungs were removed aseptically and kept on ice in 750 μl of PBS until homogenised. Serial 10-fold dilutions of the homogenised lung were plated on Pseudomonas selective agar (20 g peptone, 1.5 g K2HPO4, 1.5 g MgSO4·7H2O, 10 ml glycerol, 15 g agar, 0.025 g Irgasan per litre) and incubated at 37° C. for 24 h and then room temperature for 24 h before the colonies were counted.

P. aeruginosa = settings: in vivo; cited from earlier work
P. aeruginosa E2 = experiment: Pyocin activity in vitro against P. aeruginosa E2; assay type: cell-based
Description: (§2) Pyocin sensitivity assays: overlay spot plate method. Soft agar overlay spot plates were performed using the method of ^35. 150 μl of test strain culture at OD600 nm=0.6 was added to 6 ml of 0.8% soft agar and poured over an LB agar plate. 5 μl of bacteriocin, lung homogenate or blood at varying concentrations was spotted onto the plates and incubated for 24 h at 37° C.
(§3) Since strains of P. aeruginosa are phenotypically diverse, we tested the efficacy of the pyocins against three additional isolates: P. aeruginosa P17 and P. aeruginosa P5 (mucoid), both from cystic fibrosis patients and P. aeruginosa E2, an environmental isolate.

P. aeruginosa P5 = experiment: Pyocin activity in vitro against P. aeruginosa P5; assay type: cell-based, Pseudomonas aeruginosa
Description: as §2, §3

P. aeruginosa P17 = experiment: Mouse model of acute lung infection, P. aeruginosa P17; assay type: in vivo, Pseudomonas aeruginosa
Description: as §1
Since strains of P. aeruginosa are phenotypically diverse, we tested the efficacy of the pyocins against three additional isolates: P. aeruginosa P17 and P. aeruginosa P5 (mucoid), both from cystic fibrosis patients and P. aeruginosa E2, an environmental isolate. Pyocin S2 was not active against P. aeruginosa P5 or P. aeruginosa E2 in vitro therefore was not used to treat these strains in vivo and similarly pyocin L1 was not used against P. aeruginosa P17. […] Lung homogenates from P. aeruginosa E2-infected AP41-treated mice contained high levels of viable bacteria, reduced only 10-fold relative to control mice (Table 1). […] Thus, pyocins show strong efficacy against diverse strains of P. aeruginosa with pyocin S5 treatment displaying the largest effect on reducing bacterial load.

P8AP41T = experiment: Mouse model of acute lung infection, AP41 tolerant strain P8AP41T; assay type: in vivo, Pseudomonas aeruginosa; settings: 3 mg ml^−1 1 h post-infection
Description: as §1
In order to determine if pyocin tolerance or resistance was acquired upon pyocin treatment in vivo, viable bacteria recovered from mice that survived infection to the 24 h end-point, in all experiments discussed in this work, were tested for pyocin susceptibility. From these experiments no pyocin resistant colonies were isolated. […] Importantly, sensitivity to pyocins S5 and L1 were unaffected in vitro in this pyocin AP41-tolerant strain (FIG. 3a) and this was also shown to be the case in vivo when mice were infected with P8AP41T.

B1: Pyocin S2: S-type pyocin, SEQ ID NO: 1; targeting domain binds FpvAI, effector has DNase activity (protein, listed as Pseudomonas aeruginosa)
chain: MAVNDYEPGSMVITHVQGGGRDIIQYIPARSSYGTPPFVPPGPSPYVGTGMQEYRKLRSTLDKSHSELKKNLKNETLKEVDELKSEAGLPGKAVSANDIRDEKSIVDALMDAKAKSLKAIEDRPANLYTASDFPQKSESMYQSQLLASRKFYGEFLDRHMSELAKAYSADIYKAQIAILKQTSQELENKARSLEAEAQRAAAEVEADYKARKANVEKKVQSELDQAGNALPQLTNPTPEQWLERATQLVTQAIANKKKLQTANNALIAKAPNALEKQKATYNADLLVDEIASLQARLDKLNAETARRKEIARQAAIRAANTYAMPANGSVVATAAGRGLIQVAQGAASLAQAISDAIAVLGRVLASAPSVMAVGFASLTYSSRTAEQWQDQTPDSVRYALGMDAAKLGLPPSVNLNAVAKASGTVDLPMRLTNEARGNTTTLSVVSTDGVSVPKAVPVRMAAYNATTGLYEVTVPSTTAEAPPLILTWTPASPPGNQNPSSTTPVVPKPVPVYEGATLTPVKATPETYPGVITLPEDLIIGFPADSGIKPIYVMFRDPRDVPGAATGKGQPVSGNWLGAASQGEGAPIPSQIADKLRGKTFKNWRDFREQFWIAVANDPELSKQFNPGSLAVMRDGGAPYVRESEQAGGRIKIEIHHKVRIADGGGVYNMGNLVAVTPKRHIEIHKGGK
survival (P. aeruginosa P8; 300 μg ml^−1 and 30 μg ml^−1 (both concentrations), endpoint 24 h post-infection): survived until the endpoint of the experiment at 24 h post-infection | reduction of bacterial load in lung (P. aeruginosa P8; 3 mg ml^−1 intranasal 1 h post-infection, culled 4.5 h post-infection (FIG. 1c)): ~80 fold | reduction of bacterial numbers in lung (P. aeruginosa P8; C57/BL6 mice, 3 mg ml^−1 intranasal 6 h pre-infection, culled 4 h post-infection (FIG. 1a)): approximately 25 fold | Lowest active concentration tested (P. aeruginosa P8; lowest concentration tested with which the treated mice survived to 24 h): 30 µg/mL | Corresponding molarity (P. aeruginosa P8; molarity of lowest active concentration tested): 358 nM | activity in an invertebrate model of infection (P. aeruginosa): active | activity in vitro (P. aeruginosa E2): not active | activity in vitro (P. aeruginosa P5): not active | survival / protection (P. aeruginosa P17; pyocin 3 mg ml^−1, endpoint 24 h, infected controls culled at 4 h): survived until the 24 h endpoint | bacterial count in lung, P17 (P. aeruginosa P17; pyocin 3 mg ml^−1, treated mice survived to 24 h, no treatment 4.4 × 10^5 CFU/lung): No colonies | bacterial numbers in lung homogenates (P8AP41T; 24 h (FIG. 3b)): significantly reduced bacterial numbers | survival (P8AP41T; endpoint 24 h, PBS controls culled 6 h post-infection (FIG. 3b)): survived until the endpoint of the experiment at 24 h
